Measurements as given in paper doi:10.1101/2022.07.30.502139.

Biological target: OTLD1-RFP (Arabidopsis)
Test: FRET or BRET

B1: LSH10-GFP (natural protein)
chain: MSSPRERGKSLMESSGSEPPVTPSRYESQKRRDWNTFGQYLKNQRPPVPMSHCSCNHVLDFLRYLDQFGKTKVHVPGCMFYGQPEPPAPCTCPLRQAWGSLDALIGRLRAAYEENGGPPETNPFASGAIRVYLREVRECQAKARGIPYKKKKKKKPTPEMGGGREDSSSSSSSFSFS
%AB-FRET (donor dequenching): 13%
